Measurements taken from PMC9352680, “A comprehensive thermodynamic model for RNA binding by the Saccharomyces cerevisiae Pumilio protein PUF4”.

T1: PUF4 RNA-binding domain (Saccharomyces cerevisiae, UniProt P25339 537-888)
T1 sequence: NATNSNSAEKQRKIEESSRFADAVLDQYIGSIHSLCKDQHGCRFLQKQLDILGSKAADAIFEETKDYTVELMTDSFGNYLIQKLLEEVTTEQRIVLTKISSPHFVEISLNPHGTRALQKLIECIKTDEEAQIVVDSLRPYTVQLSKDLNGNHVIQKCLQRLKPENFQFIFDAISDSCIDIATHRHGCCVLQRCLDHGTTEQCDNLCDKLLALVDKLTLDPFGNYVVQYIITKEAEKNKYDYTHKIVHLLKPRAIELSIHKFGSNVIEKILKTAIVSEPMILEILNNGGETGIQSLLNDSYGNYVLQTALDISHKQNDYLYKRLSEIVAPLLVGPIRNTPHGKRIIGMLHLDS


Target: T1, PUF4 RNA-binding domain
Experiment: Mg; RNA-MaP; 20 mM Na-HEPES pH 7.4, 30 mM KOAc, 0.75 mM MgCl2, 0.1% Tween-20, 5% glycerol, 0.1 mg/mL BSA, 2 mM DTT; 25 C; 0.0125-409.6 nM protein
Conditions: tags: N-His6-TEV cleaved; C-SNAP kept, Cy3B-labelled; label: tethered on chip by stalled RNA polymerase

Row | Binder | Kd
1 | UCUCUUUGUAUGGUAUCUCUU (ssRNA) [Ib_S1_P4E.1_K4.1_C4.1_H4.1_A4.1_[A6G]_[T7G]_F4.1_T4.1] | 14.6 nM
2 | UCUCUUACUGUAUUAUUAAAUCUCUU (ssRNA) [Id_ii_S1_P5E.2_K5.1_C5.2_[C-2A]_[T-1C]_H5.1_A5.1_F5.1_T5.2_[T11A]] | 23.8 nM
3 | UCUCUUUUUGUAUUAUUAAGUCUCUU (ssRNA) [Id_ii_S1_P5E.2_K5.1_C5.2_[C-2T]_H5.1_A5.1_F5.1_T5.2_[T11A]_[A12G]] | 17 nM
4 | UCUCUUCGUGUAUUAUUAUUUCUCUU (ssRNA) [Id_ii_S1_P5E.2_K5.1_C5.2_[T-1G]_H5.1_A5.1_F5.1_T5.2_[A12T]] | 7.48 nM
5 | UCUCUUUUUGUAUUAUUAAUUCUCUU (ssRNA) [Id_ii_S1_P5E.2_K5.1_C5.2_[C-2T]_H5.1_A5.1_F5.1_T5.2_[T11A]_[A12T]] | 8.7 nM
6 | UCUCUUCCUGUAUUAUUAAUUCUCUU (ssRNA) [Id_ii_S1_P5E.2_K5.1_C5.2_[T-1C]_H5.1_A5.1_F5.1_T5.2_[T11A]_[A12T]] | 6.56 nM
7 | UCUCUUUGUGUAUUAUUAUUUCUCUU (ssRNA) [Id_ii_S1_P5E.2_K5.1_C5.2_[C-2T]_[T-1G]_H5.1_A5.1_F5.1_T5.2_[A12T]] | 3.95 nM
8 | UCUCUUCCUGUAUUAUUAUGUCUCUU (ssRNA) [Id_ii_S1_P5E.2_K5.1_C5.2_[T-1C]_H5.1_A5.1_F5.1_T5.2_[A12G]] | 6.12 nM
9 | UCUCUUUAUGUAUUAUUAUUUCUCUU (ssRNA) [Id_ii_S1_P5E.2_K5.1_C5.2_[C-2T]_[T-1A]_H5.1_A5.1_F5.1_T5.2_[A12T]] | 7.85 nM
10 | UCUCUUUAUGUAUUAUUAAAUCUCUU (ssRNA) [Id_ii_S1_P5E.2_K5.1_C5.2_[C-2T]_[T-1A]_H5.1_A5.1_F5.1_T5.2_[T11A]] | 16.8 nM
11 | UCUCUUCGUGUAUUAUUAUCUCUCUU (ssRNA) [Id_ii_S1_P5E.2_K5.1_C5.2_[T-1G]_H5.1_A5.1_F5.1_T5.2_[A12C]] | 7.38 nM
12 | UCUCUUCCUGUAUUAUUAUUUCUCUU (ssRNA) [Id_ii_S1_P5E.2_K5.1_C5.2_[T-1C]_H5.1_A5.1_F5.1_T5.2_[A12T]] | 7.47 nM
13 | UCUCUUCAUGUAUUAUUAGUUCUCUU (ssRNA) [Id_ii_S1_P5E.2_K5.1_C5.2_[T-1A]_H5.1_A5.1_F5.1_T5.2_[T11G]_[A12T]] | 3.5 nM
14 | UCUCUUCCUGUAUUAUUAAGUCUCUU (ssRNA) [Id_ii_S1_P5E.2_K5.1_C5.2_[T-1C]_H5.1_A5.1_F5.1_T5.2_[T11A]_[A12G]] | 14.6 nM
15 | UCUCUUACUGUAUUAUUAAUUCUCUU (ssRNA) [Id_ii_S1_P5E.2_K5.1_C5.2_[C-2A]_[T-1C]_H5.1_A5.1_F5.1_T5.2_[T11A]_[A12T]] | 12.5 nM
16 | UCUCUUCAUGUAUUAUUAUUUCUCUU (ssRNA) [Id_ii_S1_P5E.2_K5.1_C5.2_[T-1A]_H5.1_A5.1_F5.1_T5.2_[A12T]] | 9.94 nM

Row | Binder | Kd
17 | UCUCUUUGUGUAUUAUUAAUUCUCUU (ssRNA) [Id_ii_S1_P5E.2_K5.1_C5.2_[C-2T]_[T-1G]_H5.1_A5.1_F5.1_T5.2_[T11A]_[A12T]] | 4.68 nM
18 | UCUCUUUUUGUAUUAUUAGUUCUCUU (ssRNA) [Id_ii_S1_P5E.2_K5.1_C5.2_[C-2T]_H5.1_A5.1_F5.1_T5.2_[T11G]_[A12T]] | 3.49 nM
19 | UCUCUUUGUAUGCUAUCUCUU (ssRNA) [Ib_S1_P4E.1_K4.1_C4.1_H4.1_A4.1_[A6G]_[T7C]_F4.1_T4.1] | 7.91 nM
20 | UCUCUUAUUGUAUUAUUAACUCUCUU (ssRNA) [Id_ii_S1_P5E.2_K5.1_C5.2_[C-2A]_H5.1_A5.1_F5.1_T5.2_[T11A]_[A12C]] | 11.1 nM
21 | UCUCUUUCUGUAUUAUUAAAUCUCUU (ssRNA) [Id_ii_S1_P5E.2_K5.1_C5.2_[C-2T]_[T-1C]_H5.1_A5.1_F5.1_T5.2_[T11A]] | 8.35 nM
22 | UCUCUUUAUGUAUUAUUAACUCUCUU (ssRNA) [Id_ii_S1_P5E.2_K5.1_C5.2_[C-2T]_[T-1A]_H5.1_A5.1_F5.1_T5.2_[T11A]_[A12C]] | 13.9 nM
23 | UCUCUUCGUGUAUUAUUAACUCUCUU (ssRNA) [Id_ii_S1_P5E.2_K5.1_C5.2_[T-1G]_H5.1_A5.1_F5.1_T5.2_[T11A]_[A12C]] | 12.5 nM
24 | UCUCUUACUGUAUUAUUAUGUCUCUU (ssRNA) [Id_ii_S1_P5E.2_K5.1_C5.2_[C-2A]_[T-1C]_H5.1_A5.1_F5.1_T5.2_[A12G]] | 8.64 nM
25 | UCUCUUUCUGUAUUAUUAACUCUCUU (ssRNA) [Id_ii_S1_P5E.2_K5.1_C5.2_[C-2T]_[T-1C]_H5.1_A5.1_F5.1_T5.2_[T11A]_[A12C]] | 5.78 nM
26 | UCUCUUCCUGUAUUAUUAACUCUCUU (ssRNA) [Id_ii_S1_P5E.2_K5.1_C5.2_[T-1C]_H5.1_A5.1_F5.1_T5.2_[T11A]_[A12C]] | 7.24 nM
27 | UCUCUUUAUGUAUUAUUAAUUCUCUU (ssRNA) [Id_ii_S1_P5E.2_K5.1_C5.2_[C-2T]_[T-1A]_H5.1_A5.1_F5.1_T5.2_[T11A]_[A12T]] | 10.6 nM
28 | UCUCUUAUUGUAUUAUUAUCUCUCUU (ssRNA) [Id_ii_S1_P5E.2_K5.1_C5.2_[C-2A]_H5.1_A5.1_F5.1_T5.2_[A12C]] | 6.61 nM
29 | UCUCUUUUUGUAUUAUUAGCUCUCUU (ssRNA) [Id_ii_S1_P5E.2_K5.1_C5.2_[C-2T]_H5.1_A5.1_F5.1_T5.2_[T11G]_[A12C]] | 4.26 nM
30 | UCUCUUUGUACAAUAUCUCUU (ssRNA) [Ib_S1_P4E.1_K4.1_C4.1_H4.1_A4.1_[T5C]_[T7A]_F4.1_T4.1] | 1.29 nM
31 | UCUCUUCGUGUAUUAUUAGUUCUCUU (ssRNA) [Id_ii_S1_P5E.2_K5.1_C5.2_[T-1G]_H5.1_A5.1_F5.1_T5.2_[T11G]_[A12T]] | 3.02 nM
